The record followed here is EP2469278A1, “Reagentless fluorescent biosensors from nanofitins, rational design methods to create reagentless fluorescent biosensors and methods of their use” (Institut Pasteur, priority 2010, dated 2012).

Positions count from the first letter of the chain named. Names may count otherwise. “And” between values parts separate entries of the source, which are not always exact repeats. Equal entries are not always repeated.

The target in assay [1] is T1, hen egg-white lysozyme (hen, UniProt P00698 19-147).
T1 construct: also called HEL
Nature of the assay: fluorescence titration in solution, 0.3 µM conjugate, buffer C, 25 °C.

Assay [2] concerns the target T1, hen egg-white lysozyme. Nature of the assay: from Kd in solution: fluorescence titration of conjugate against competition Biacore of H4S(wt).
Assay [3] addresses T2, hen egg-white lysozyme (HEL) (Gallus gallus, UniProt P00698).
T2 construct: hen egg-white lysozyme (HEL); purchased Sigma
Put plainly: Titration of H4S conjugates with HEL, monitored by fluorescence. The class given is binding. The conditions noted are these: for ΔΔG: decrease of free energy of interaction with HEL on fluorophore conjugation, from Kd of conjugate versus H4S(wt); for sr: relative sensitivity of the conjugate at a fixed concentration of 0.3 µM (Equation 8), HEL; for ΔF∞/F0: maximal variation of F at λmax on HEL binding. As to the method: The binding and fluorescence experiments were performed at equilibrium as if the preparations of conjugates were homogeneous, i. e. as if yc = 1. The binding reactions were conducted by incubating 0.3 µM of conjugate with variable concentrations of the HEL or BSA antigens in a volume of 1 mL, for 30 min in the dark with gentle shaking. The reactions were carried out in Buffer C or in a mixture v:(1-v) of calf serum and Buffer C as indicated in example 2.
The conjugate (or biosensor) B and antigen A form a 1:1 complex B:A according to the reaction: B + A↔B:A [formula] At equilibrium, the concentration [B:A] of the complex is given by the equation: [B:A] = 0.5{[B]0+[A]0+Kd-(((([B]0+[A]0+Kd))^2-4[B]0[A]0))^(1/2)} [formula] where Kd is the dissociation constant, and [A]0 and [B]0 are the total concentrations of A and B, respectively (Renard et al., 2003).
The fluorescence of the IANBD conjugates was excited at 485 nm (5 nm slit width) and its intensity measured between 520 and 550 nm (20 nm slit width) with a FP-6300 spectrofluorometer (Jasco). The signal of HEL alone or BSA alone was measured in an independent experiment and subtracted from the global signal of the binding mixture to give the specific fluorescence intensity F of each conjugate. The intensity F at a given value of [A]0 satisfies the following equation: (F-F0)/F0 = ΔF/F0 = (ΔF∞/F0)([B:A]/[B]0) [formula] where F0 and F∞ are the values of F at zero and saturating concentrations of A (Renard et al., 2003). The values of ΔF∞/F0, Kd, and [B]0 could be determined by fitting Equation 5, in which [B:A] is given by Equation 4, to the experimental values of ΔF/F0, measured in a titration experiment. The fittings were performed with the Kaleidagraph software (Synergy Software).
The sensitivity s and relative sensitivity sr of a conjugate can be defined by the following equations for the low values of [A]0, i. e. in the initial part of the titration curve: ΔF = s[A]0 [formula] ΔF/F0 = sr [A]0 /[B]0 [formula] s and sr can be expressed as functions of characteristic parameters of the conjugate: sr = (ΔF∞/F0)([B]0/(Kd+[B]0)) [formula] s = fb sr [formula] where fb = F0/[B]0 is the molar fluorescence of the free conjugate (Renard and Bedouelle, 2004). Equation 8 implies that sr is maximal when the biosensor B is present at a concentration [B]0 >> Kd, as every newly titrated molecule A then forms a complex. Equation 6 implies that the lower limit of detection δ[A]0 of the conjugate is linked to the lower limit of measurement of the spectrofluorometer δF by the following equations: δ[A]0 = s^-1 δF = sr^-1 [B]0 (δF/F0) [formula]

Where [4] appears, read: 0.3 µM conjugate, buffer C, 25 °C, value ± SE of fitting.

B1: H4S conjugate, IANBD fluorophore coupled at position Asn9 (designed binder)
chain: MRGSHHHHHHGSVKVKFFWCGEEKEVDTSKIVWVKRAGKSVLFIYDDNGKNGYGDVTEKDAPKELLDMLARAEREKKLN
modifications: Cys at position 9 (H4S numbering) coupled to IANBD ester (ANBD)
With B1, in the assay with hen egg-white lysozyme [1], the affinity, expressed as Kd, was 0.007 µM and the “ΔF∞/F0 (maximal relative variation of fluorescence on HEL binding)” value was 0.52. Further, the “ΔΔG (conjugate against H4S(wt))” value in the assay with hen egg-white lysozyme [2] was at most 2.09 kJ/mol.

B2: Asp44: H4S conjugate: residue Asp44 changed into cysteine and coupled with the IANBD fluorophore (conjugate)
chain: B1 chain with C20N, D55C
For B2, in assay [3], the ΔΔG was at least 6.28 kJ/mol. Besides, the sr in assay [3] (buffer C) is 0.49.

B3: Ser29: H4S conjugate: residue Ser29 changed into cysteine and coupled with the IANBD fluorophore (conjugate)
chain: B1 chain with C20N, S40C
In the case of B3, the ΔΔG in assay [3] is at most 2.1 kJ/mol.

B4: Ile33: H4S conjugate: residue Ile33 changed into cysteine and coupled with the IANBD fluorophore (conjugate)
chain: B1 chain with C20N, I44C
For B4, the ΔΔG in assay [3] is at least 6.28 kJ/mol. Also, in assay [3] (fluorescence titration with HEL, 0.3 µM conjugate, buffer C, 25 °C, value ± SE of fitting), the Kd result is given as “nM”. Further, the “ΔF∞/F0” value in assay [3] (setting [4]) is listed as “nm”. Moreover, the sr entry in assay [3] (buffer C) is “nm”.

B5: Trp8: H4S conjugate: residue Trp8 changed into cysteine and coupled with IANBD (SEQ ID NO: 59) (conjugate)
chain: B1 chain with W19C, C20N
modifications: IANBD fluorophore on Cys8
Turning to B5, the sr in assay [3] (buffer C) was determined as 0.90.

B6: Lys28: H4S conjugate: residue Lys28 changed into cysteine and coupled with the IANBD fluorophore (conjugate)
chain: B1 chain with C20N, K39C
With B6, the ΔΔG in assay [3] is at most 2.1 kJ/mol. Moreover, the sr in assay [3] (buffer C) was 0.24.

B7: Leu31: H4S conjugate: residue Leu31 changed into cysteine and coupled with the IANBD fluorophore (conjugate)
chain: B1 chain with C20N, L42C
In the case of B7, the ΔΔG in assay [3] is at least 6.28 kJ/mol. For the same molecule, the sr in assay [3] (buffer C) is given as 0.17.

B8: Trp22: H4S conjugate: residue Trp22 changed into cysteine and coupled with the IANBD fluorophore (conjugate)
chain: B1 chain with C20N, W33C
B8: the ΔΔG in assay [3] was at least 6.28 kJ/mol. The “ΔF∞/F0” value in assay [3] (setting [4]) is 0.3±0.1. Besides, in assay [3] (buffer C), the sr is given as 0.06.

B9: Asn9: H4S conjugate: residue Asn9 changed into cysteine and coupled with the IANBD fluorophore (conjugate)
chain: B1 chain
With B9, the ΔΔG in assay [3] was at most 2.1 kJ/mol.

B10: Val21: H4S conjugate: residue Val21 changed into cysteine and coupled with IANBD (SEQ ID NO: 60) (conjugate)
chain: B1 chain with C20N, V32C
modifications: IANBD fluorophore on Cys21
As for B10, the sr in assay [3] (buffer C) turned out to be 3.17.

B11: Lys39: H4S conjugate: residue Lys39 changed into cysteine and coupled with IANBD (SEQ ID NO: 63) (conjugate)
chain: B1 chain with C20N, K50C
modifications: IANBD fluorophore on Cys39
For the molecule B11, the sr in assay [3] (buffer C) is 1.16.

B12: Phe7: H4S conjugate: residue Phe7 changed into cysteine and coupled with the IANBD fluorophore (conjugate)
chain: B1 chain with F18C, C20N
For B12, in assay [3], the ΔΔG was at most 2.1 kJ/mol. Moreover, the sr in assay [3] (buffer C) is given as 0.22.

B13: Tyr42: H4S conjugate: residue Tyr42 changed into cysteine and coupled with the IANBD fluorophore (conjugate)
chain: B1 chain with C20N, Y53C
Consider B13, for which the ΔΔG in assay [3] was at least 6.28 kJ/mol. For the same molecule, the sr in assay [3] (buffer C) was 0.72.

B14: Asn40: H4S conjugate: residue Asn40 changed into cysteine and coupled with the IANBD fluorophore (conjugate)
chain: B1 chain with C20N, N51C
B14: the ΔΔG in assay [3] was at least 6.28 kJ/mol. The sr in assay [3] (buffer C) is listed as 0.07.

B15: Thr46: H4S conjugate: residue Thr46 changed into cysteine and coupled with the IANBD fluorophore (conjugate)
chain: B1 chain with C20N, T57C
With B15, the ΔΔG in assay [3] is at most 2.1 kJ/mol. Besides, the sr in assay [3] (buffer C) is recorded as 0.27.

B16: H4S conjugate, IANBD fluorophore coupled at position Asp44 (designed binder)
chain: B1 chain with C20N, D55C
modifications: Cys at position 44 (H4S numbering) coupled to IANBD ester (ANBD)
Take B16: in the assay with hen egg-white lysozyme [1], binding was put at a Kd of 0.623 µM and the “ΔF∞/F0 (maximal relative variation of fluorescence on HEL binding)” value was 1.5. In addition, the “ΔΔG (conjugate against H4S(wt))” value with hen egg-white lysozyme [2] was at least 6.28 kJ/mol.

B17: H4S conjugate, IANBD fluorophore coupled at position Ser29 (designed binder)
chain: B1 chain with C20N, S40C
modifications: Cys at position 29 (H4S numbering) coupled to IANBD ester (ANBD)
Take B17: in the assay with hen egg-white lysozyme [1], the affinity, expressed as Kd, was 0.033 µM and the “ΔF∞/F0 (maximal relative variation of fluorescence on HEL binding)” value worked out at 0.55. The “ΔΔG (conjugate against H4S(wt))” value with hen egg-white lysozyme [2] is at most 2.09 kJ/mol.

B18: H4S conjugate, IANBD fluorophore coupled at position Asn40 (designed binder)
chain: B1 chain with C20N, N51C
modifications: Cys at position 40 (H4S numbering) coupled to IANBD ester (ANBD)
For the molecule B18, in the assay with hen egg-white lysozyme [1], the Kd is 2 µM and the “ΔF∞/F0 (maximal relative variation of fluorescence on HEL binding)” value amounted to 0.57. The “ΔΔG (conjugate against H4S(wt))” value in the assay with hen egg-white lysozyme [2] is at least 6.28 kJ/mol.

B19: H4S conjugate, IANBD fluorophore coupled at position Leu31 (designed binder)
chain: B1 chain with C20N, L42C
modifications: Cys at position 31 (H4S numbering) coupled to IANBD ester (ANBD)
Consider B19, for which, in the assay with hen egg-white lysozyme [1], the Kd came out at 8.36 µM and the “ΔF∞/F0 (maximal relative variation of fluorescence on HEL binding)” value stood at 4.9. Moreover, the “ΔΔG (conjugate against H4S(wt))” value with hen egg-white lysozyme [2] is at least 6.28 kJ/mol.

B20: H4S conjugate, IANBD fluorophore coupled at position Lys39 (designed binder)
chain: B1 chain with C20N, K50C
modifications: Cys at position 39 (H4S numbering) coupled to IANBD ester (ANBD)
Regarding B20, in the assay with hen egg-white lysozyme [1], the Kd came out at 0.126 µM and the “ΔF∞/F0 (maximal relative variation of fluorescence on HEL binding)” value stood at 1.65. The “ΔΔG (conjugate against H4S(wt))” value with hen egg-white lysozyme [2] was ≥ 2.09 kJ/mol and ≤ 5.02 kJ/mol.

B21: H4S conjugate, IANBD fluorophore coupled at position Lys28 (designed binder)
chain: B1 chain with C20N, K39C
modifications: Cys at position 28 (H4S numbering) coupled to IANBD ester (ANBD)
As to B21, in the assay with hen egg-white lysozyme [1], the Kd was 0.028 µM and the “ΔF∞/F0 (maximal relative variation of fluorescence on HEL binding)” value amounted to 0.26. Also, the “ΔΔG (conjugate against H4S(wt))” value with hen egg-white lysozyme [2] is at most 2.09 kJ/mol.

B22: H4S conjugate, IANBD fluorophore coupled at position Phe7 (designed binder)
chain: B1 chain with F18C, C20N
modifications: Cys at position 7 (H4S numbering) coupled to IANBD ester (ANBD)
With B22, in the assay with hen egg-white lysozyme [1], the Kd amounted to 0.042 µM and the “ΔF∞/F0 (maximal relative variation of fluorescence on HEL binding)” value came out at 0.26. In the assay with hen egg-white lysozyme [2], the “ΔΔG (conjugate against H4S(wt))” value was at most 2.09 kJ/mol.
